Measured values as given in publication PMC7174510.

Biological target: Rac1 (African green monkey (endogenous in COS-1))

| Binder | percent inhibition by 1A-116 (50 uM, 24 h) of the SRE-luciferase activity elicited by the activated GEF in COS-1 cells |
| --- | --- |
| Tiam1 C1199 (aa 391-1590) (domain or fragment) LEMSTTNSESLEEAGSAHSDEQSSGTLSSPGQSDILLTAAQGTVRKAGALAVKNFLVHKKNKKVESATRRKWKHYWVSLKGCTLFFYETDGRSGIDHNSVPKHAVWVENSIVQAVPEHPKKDFVFCLSNSLGDAFLFQTTSQTELENWITAIHSACAAAVARHHHKEDTLRLLKSEIKKLEQKIDMDEKMKKMGEMQLSSVTDSKKKKTILDQIFVWEQNLEQFQMDLFRFRCYLASLQGGELPNPKRLLAFASRPTKVAMGRLGIFSVSSFHALVAARTGEIGVRRRTQAMSRSASKRRSRFSSLWGLDTTSKKKQGRPTINQVFGEGTDAVKRSLEGIFDDTVPDGKREKEVVLPSVHQHNPDCDIWVHEYFTPSWFCLPNNQPALTVVRPGDTARDTLELICKTHQLDHSAHYLRLKFLMENRVQFYIPQPEEDIYELLYKEIEICPKVTQNIHIEKSDAAADNYGFLLSSVDEDGIRRLYVNSVKETGLASKKGLKAGDEILEINNRAAGTLNSSMLKDFLSQPSLGLLVRTYPEPEGGVELLENPPHRVDGPVDLGESPLAFLTSNPGHSLSSEQGSSAETAPEEGEGPDLESSDETDHSSKSTEQVAAFCRSLHEMSPSDSSPSPQDATSPQLATTRQLSDADKLRKVICELLETERTYVKDLNCLMERYLKPLQKETFLTQDELDVLFGNLTEMVEFQVEFLKTLEDGVRLVPDLEKLEKVDQFKKVLFSLGGSFLYYADRFKLYSAFCASHTKVPKVLVKAKTDTAFKAFLDAQNPRQQHSSTLESYLIKPIQRVLKYPLLLRELFALTDAESEEHYHLDVAIKTMNKVASHINEMQKIHEEFGAVFDQLIAEQTGEKKEVADLSMGDLLLHTSVIWLNPPASLGKWKKEPELAAFVFKTAVVLVYKDGSKQKKKLVGSHRLSIYEEWDPFRFRHMIPTEALQVRALPSADAEANAVCEIVHVKSESEGRPERVFHLCCSSPESRKDFLKSVHSILRDKHRRQLLKTESLPSAQQYVPFGGKRLCALKGARPAMSRAVSAPSKSLGRRRRRLARNRFTIDSDAISASSPEKEPQQPAGGGDTDRWVEEQFDLAQYEEQDDIKETDILSDDDEFCESLKGASVDRDLQEQLQAASISQRARGRRTLDSHASRMTQLKKQAALSGINGGLESASEEVIWVRREDFAPSRKLNTE | 75% |
| oncogenic Dbl (domain or fragment) HVLNELIQTERVYVRELYTVLLGYRAEMDNPEMFDLMPPLLRNKKDILFGNMAEIYEFHNDIFLSSLENCAHAPERVGPCFLERKDDFQMYAKYCQNKPRSETIWRKYSECAFFQECQRKLKHRLRLDSYLLKPVQRITKYQLLLKELLKYSKDCEGSALLKKALDAMLDLLKSVNDSMHQIAINGYIGNLNELGKMIMQGGFSVWIGHKKGATKMKDLARFKPMQRHLFLYEKAIVFCKRRVESGEGSDRYPSYSFKHCWKMDEVGITEYVKGDNRKFEIWYGEKEEVYIVQASNVDVKMTWLKEIRNILLKQQELLTVKKRKQQDQLTERDKFQISLQQNDEKQQGAFISTEETELEHTSTVVEVCEAIASVQAEANTVWTEASQSAEISEEPAEWSSNYFYPTYDENEEENRPLMRPVSEMALLY | 60% |
